How the values were obtained:
[1] = biological target: purified full-length EED (AlphaScreen) (UniProt O75530); test: AlphaScreen or HTRF
EED (Homo sapiens) = EED (Homo sapiens) (UniProt O75530); conditions: cited from earlier work
Chain of EED (Homo sapiens) (O75530 2-441): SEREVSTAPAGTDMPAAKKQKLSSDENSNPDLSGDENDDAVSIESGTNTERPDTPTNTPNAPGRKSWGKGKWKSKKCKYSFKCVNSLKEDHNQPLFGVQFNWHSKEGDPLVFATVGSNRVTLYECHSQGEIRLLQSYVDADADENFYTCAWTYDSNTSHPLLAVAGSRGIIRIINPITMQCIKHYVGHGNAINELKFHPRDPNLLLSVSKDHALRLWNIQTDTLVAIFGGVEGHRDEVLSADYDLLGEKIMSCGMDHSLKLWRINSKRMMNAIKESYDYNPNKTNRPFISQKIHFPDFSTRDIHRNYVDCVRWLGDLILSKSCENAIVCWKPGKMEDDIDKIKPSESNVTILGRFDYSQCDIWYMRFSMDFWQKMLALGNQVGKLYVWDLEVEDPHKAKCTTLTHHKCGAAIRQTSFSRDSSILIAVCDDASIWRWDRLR

Chain of EZH2 39-68 (Q15910 39-68): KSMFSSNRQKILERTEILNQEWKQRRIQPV
Chain of purified full-length EED (AlphaScreen) (O75530 whole entry): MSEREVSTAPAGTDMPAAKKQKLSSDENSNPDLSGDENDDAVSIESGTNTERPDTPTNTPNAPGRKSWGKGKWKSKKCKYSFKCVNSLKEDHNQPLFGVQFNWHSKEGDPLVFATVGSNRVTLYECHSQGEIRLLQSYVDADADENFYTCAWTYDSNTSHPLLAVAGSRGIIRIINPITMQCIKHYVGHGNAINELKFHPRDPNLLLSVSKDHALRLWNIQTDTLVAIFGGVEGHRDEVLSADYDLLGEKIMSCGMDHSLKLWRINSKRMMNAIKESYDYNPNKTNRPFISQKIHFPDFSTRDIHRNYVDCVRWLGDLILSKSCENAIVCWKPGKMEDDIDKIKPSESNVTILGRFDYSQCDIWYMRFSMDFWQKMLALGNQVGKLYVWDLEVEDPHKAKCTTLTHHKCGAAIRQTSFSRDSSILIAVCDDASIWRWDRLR

Substance | EC50 [1] | Kd (EED (Homo sapiens))
unlabeled full-length RING1B (from UniProt Q99496 1-336) (natural protein) | 605 nM | –
EZH2 39-68 (from UniProt Q15910) | – | 380 nM

Source: paper PMC4073494
